Consider eleven molecules from patent US20160297892A1 (Novo Nordisk, published 2016).

Common to all, as to assay: ELISA, calcium-free TBS;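 also: binding of mouse antibodies detected by ELISA with an HRP-conjugated goat anti-mouse IgG secondary and TMB substrate development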
The target in experiment [1] is T1, human Protein S (plasma derived) (human, UniProt P07225 42-676).
T1 construct: Bought plasma-derived human Protein S (Haematologic Technologies or Enzyme Research Laboratories); also called Plasma PS; free Protein S
T1 sequence: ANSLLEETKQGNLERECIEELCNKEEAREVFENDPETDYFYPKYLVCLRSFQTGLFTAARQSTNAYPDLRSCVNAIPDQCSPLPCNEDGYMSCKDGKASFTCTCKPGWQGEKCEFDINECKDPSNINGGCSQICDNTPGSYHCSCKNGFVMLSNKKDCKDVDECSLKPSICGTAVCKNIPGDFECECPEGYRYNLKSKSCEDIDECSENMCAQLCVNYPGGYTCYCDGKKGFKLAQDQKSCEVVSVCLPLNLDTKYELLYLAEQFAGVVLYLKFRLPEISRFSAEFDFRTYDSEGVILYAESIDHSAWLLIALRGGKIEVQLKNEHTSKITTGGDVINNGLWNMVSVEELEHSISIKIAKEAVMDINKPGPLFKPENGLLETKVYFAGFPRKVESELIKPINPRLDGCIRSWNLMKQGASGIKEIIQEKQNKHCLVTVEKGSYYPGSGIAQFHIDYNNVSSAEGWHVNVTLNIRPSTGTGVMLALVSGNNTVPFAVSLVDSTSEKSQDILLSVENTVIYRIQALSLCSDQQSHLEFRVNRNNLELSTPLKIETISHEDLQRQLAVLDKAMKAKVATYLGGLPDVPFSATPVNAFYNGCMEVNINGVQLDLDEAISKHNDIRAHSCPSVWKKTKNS
Description: (§1) After incubation and washing a HRP-labelled goat-anti-mouse IgG secondary antibody (Jackson) was added and the ELISA was developed after incubation and wash by addition of 3,3′,5,5′-Tetramethylbenzidine.

In experiment [2] the target is T2, EGF domain 1 and 2 of recombinant human Protein S (human, UniProt P07225 114-200, limits assumed).
T2 construct: domain: EGF domain 1 and 2; also called hEGF1-2
T2 sequence (looked up): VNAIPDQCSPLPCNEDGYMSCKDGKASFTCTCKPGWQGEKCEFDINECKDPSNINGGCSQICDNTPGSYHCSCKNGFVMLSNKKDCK
Description: as §1

For experiment [3], the target named is T3, EGF1-4 domains of human Protein S with C-terminal HPC4 tag (human, UniProt P07225 114-286, partial hydroxylation of Asn or Asp in the EGF domains (detected by MS)).
T3 construct: also called hEGF1-4; human Protein S EGF1-4
T3 sequence: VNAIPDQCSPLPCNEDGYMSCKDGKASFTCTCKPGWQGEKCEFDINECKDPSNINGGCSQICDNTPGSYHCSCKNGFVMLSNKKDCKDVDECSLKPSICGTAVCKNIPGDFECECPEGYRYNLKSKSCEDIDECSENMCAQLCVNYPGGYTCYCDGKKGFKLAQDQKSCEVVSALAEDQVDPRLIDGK
Description: as §1

The target of experiment [4] is T4, EGF domain 3 and 4 of recombinant human Protein S (human, UniProt P07225 201-286, limits assumed).
T4 construct: domain: EGF domain 3 and 4; also called hEGF3-4
T4 sequence (looked up): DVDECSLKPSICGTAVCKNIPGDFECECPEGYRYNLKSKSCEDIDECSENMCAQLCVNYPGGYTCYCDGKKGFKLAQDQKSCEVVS
Description: as §1

The target in experiment [5] is T5, Gla-domain deleted recombinant human Protein S (human, UniProt P07225 114-676).
T5 construct: also called hPS-dGla; desGla human Protein S
T5 sequence: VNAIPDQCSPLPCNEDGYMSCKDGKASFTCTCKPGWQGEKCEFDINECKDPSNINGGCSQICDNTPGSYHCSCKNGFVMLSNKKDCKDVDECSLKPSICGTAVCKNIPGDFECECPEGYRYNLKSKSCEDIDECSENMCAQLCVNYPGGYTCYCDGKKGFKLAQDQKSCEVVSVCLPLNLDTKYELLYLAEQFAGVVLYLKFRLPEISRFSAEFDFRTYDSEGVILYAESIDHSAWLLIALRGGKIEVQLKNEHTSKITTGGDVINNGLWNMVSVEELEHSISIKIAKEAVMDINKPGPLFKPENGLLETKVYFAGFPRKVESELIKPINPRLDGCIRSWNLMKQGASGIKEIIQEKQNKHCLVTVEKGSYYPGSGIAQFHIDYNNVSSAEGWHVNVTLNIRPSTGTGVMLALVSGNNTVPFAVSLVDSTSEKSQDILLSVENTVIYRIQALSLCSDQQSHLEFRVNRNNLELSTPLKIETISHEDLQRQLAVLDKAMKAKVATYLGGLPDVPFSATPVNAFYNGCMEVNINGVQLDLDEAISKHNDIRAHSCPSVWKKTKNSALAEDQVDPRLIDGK
Description: as §1

B1: M-hProtS-3F38A2 monoclonal antibody (antibody, mouse IgG1, V domains shown)
VH: EVLLQQSGPELVKPGASVKIPCKASGYTFTDYNMDWVKQSHGKSLEWIGDINPNNGDTFYNQKFKGKATLTVDKSSSTAYMELRSLTSEDTAVYYCARSEIFTTAPDYGMGYWGQGTSVTVSS
VL: ENVLTQSPAIMSASPGEKVTMTCRASSSVSSSYLHWYQQRSGASPKLWIYGTSNLASGVPARFSGSGSGTSYSLTISSVEAEDAATYYCQQYSGYPRTFGGGTKLEIKR
notes: Purified from hybridoma supernatant; mouse IgG1, kappa
On to B1, for which the binding result is listed as “binds” in experiment [1]; “no binding” in experiment [2]; “binds” in experiment [3]; “no binding” in experiment [4]; “binds” in experiment [5].

B2: M-hProtS-3F62A5 monoclonal antibody (antibody, mouse IgG1, V domains shown)
VH: EVLLQQSGPELVKPGASVKITCKASGYTFTDYNMDWVKQSHGKSLEWIGDIDPNNGGTIYNQEFTGKATLTVDTSSSTAYMELRSLTSEDTAVYYCVRSEIFTTAPDYGVDYWGQGTSVTVSS
VL: ENVLTQSPAIMSASPGEKVTMTCRASSSVSSSYLHWYRQKSGASPKLWIYSTSNLASGVPARFSGSGSGTSYSLTISRVEAEDAATYYCQQYSGYPRTFGGGTKVEIKR
notes: as for B1
Consider B2, for which the binding result in experiment [1] is “binds”; in experiment [2] it was “no binding”; in experiment [3], “binds”; in experiment [4], “no binding”; in experiment [5], “binds”.

B3: M-hProtS-6F265A1 monoclonal antibody (antibody, mouse IgG1, V domains shown)
VH: QVQLKESGPGLVAPSQSLSITCTVSGFSLTSYGVHWVRQPPGKGLGWLGVIWAGGRTDYNSALMSRLSISKDNSKSQVFLKMNSLQTDDTAIYYCARDYGNYNYAMDYWGQGISVTVSS
VL: ETTVTQSPASLSMAIGEKVTIRCITSTDIDDDVNWYQQKPGEPPKLLISEGNILRPGVPSRFSSSGYGTDFVFSIENMLSEDVGDYYCLQSDTLPTFGGGTKLEIKR
notes: Tested as antibody purified from hybridoma supernatant; mouse IgG1, kappa
Take B3: the binding result in experiment [3] is recorded as “binds”; in experiment [4], “no binding”; in experiment [5], “binds”.

B4: M-hProtS-6F120A1 monoclonal antibody (antibody, mouse IgG1, V domains shown)
VH: EIQLQQSGPELVKPGASVKVSCKASGYSFTDYNMYWVKQSHGKSLEWIGYIDPYNGGTSYNQKFKGKATLTVDKSSSTAFMHLNSLTSEDSAVYYCARERDYWYFDVRGAGTTVTVSS
VL: DIVLTQSPASLAVSLGQRATISCRASKSVSASGYSYMHWYQQKPGQPPKLLIYLASNLESGVPARFSGSGSGTDFTLNIHPVEEEDAATYYCQHSRELPLTFGAGTKLELKR
notes: as for B1
As for B4, the binding result in experiment [1] is listed as “binds”; in experiment [2], “no binding”; in experiment [3] it was “binds”; in experiment [4], “no binding”; in experiment [5], “binds”.

B5: M-hProtS-2F380A1 monoclonal antibody (antibody, mouse IgG1, V domains shown)
VH: EVKLEESGGGLVQPGGSMKLSCAASGFTFSDAWMDWVRQSPEKGLEWVAEVRSKADNHATYYAESVKGRFTISRDDSKSAVYLQMNSLRPEDTGIYYCTLTTAFLFDSWGQGTTLTVSS
VL: QIALTQSPAIMSASPGEKVTMTCSVNSSVSYMHWYQQKPGSSPRLWIYDTSNLVSGVPGRFSGSGSGTSYSLTLSSMEAEDAATYYCQQYSGYLYTFGGGTKLEIKR
notes: as for B1
Regarding B5, the binding result in experiment [1] was “binds”; in experiment [3], “binds”; in experiment [4], “no binding”; in experiment [5], “binds”.

B6: M-hProtS-2F382A1 monoclonal antibody (antibody, mouse IgG1, V domains shown)
VH: EVKLEESGGGLVQPGGSMKLSCAASGFTFSDAWMGWVRQSPEKGLEWVAEIRGKANNHATYYSESVKGRFTISRDDSKSSVYLQMNSLRAEDTGIFYCCLITAFLFDYWGQGTTLTVSS
VL: QIVLTQSPAIMSASPGEKVTMTCSGRSSENYMYWYQQKPGSPPRLWIYDTSNLVSGVPARFSGSRSGTSYSLTISSMEAEDAATYYCQQFNGYPYTFGGGTKLEIRR
notes: as for B1
With B6, the binding result in experiment [1] is “binds”; in experiment [3] it was “binds”; in experiment [4] it was “no binding”; in experiment [5] it was “binds”.

B7: M-hProtS-6F206A1 monoclonal antibody (antibody, mouse IgG1, V domains shown)
VH: QVQLQQSGAEMVRPGSSVKISCKASGYAFSSHWMNWVKQRPGQGLEWIGQIYPGDGDTNYNGKFRGKAIVTADTSSSTAYLQLSSLTSEDTAVFFCAPGYHGTSYWFAYWGQGTLVTVSA
VL: DIQMSQSPSSLSASLGDTVTITCHASQNINIWLSWYQQKPGNILTLLIYKASNLYTGVPSRFSGSGSGTDFTLTISSLQPEDIATYYCQQGQSFPLTFGTGTRLELKR
notes: as for B1
Consider B7, for which the binding result is reported as “binds” in experiment [1], “binds” in experiment [3], “no binding” in experiment [4] and “binds” in experiment [5].

B8: M-hProtS-6F151A2 monoclonal antibody (antibody, mouse IgG1, V domains shown)
VH: EVQLQQSGAELVRSGASVKLSCTASGFNIKDNYIHWVKQRPEQGLEWIGWIDPENGDTEYAPKFQGKATMTADTSSNTAYLQLSSLTSEDTAVYYCSAYGAAYWGQGTLVTVSA
VL: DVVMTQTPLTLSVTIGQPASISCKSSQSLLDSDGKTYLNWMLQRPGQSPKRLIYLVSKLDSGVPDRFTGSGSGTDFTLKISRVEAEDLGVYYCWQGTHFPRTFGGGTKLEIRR
notes: as for B1
Regarding B8, the binding result is listed as “binds” in experiment [1], “binds” in experiment [3], “no binding” in experiment [4] and “binds” in experiment [5].

B9: M-hProtS-2F188A1 monoclonal antibody (antibody, mouse IgG1, V domains shown)
VH: QVQLQQPGAELVRPGTSVKLSCKASGYTVTSYWMNWIKQRPEQGLEWIGRIDPNDSETLYNQKFKDKVILTVDKSSSTVYIQLSSLTSEDSAVYYCARWAGSGYAMDYWGQGTSVTVSS
VL: QIVLTQSPALLSASPGEKVTMTCSASSSVSYMYWYQQKPGSSPKPWIYVTSNLASGVPARFSGSGSGTSYSLTISSMEAEDAATYYCHQWSSDPYTFGGGTKLEIRR
notes: as for B1
As for B9, the binding result in experiment [1] is recorded as “binds”; in experiment [3] it was “binds”; in experiment [4] it was “no binding”; in experiment [5], “binds”.

B10: M-hProtS-6F216A3 (mAb 0914) monoclonal antibody (antibody, V domains shown)
VH: QVQLQQPGAELVRPGASVKLSCKASGYTFTSYWINWVKQRPEQGLEWIGRIDPYDSETHYNQKFKDKAILTVDKSSSTAYMQLSSLTSEDSAVYYCARWGGSGYAMDYWGQGTSVTVSS
VL: QIVLSQSPAILSASPGEKVTMTCRASSSVSYMYWYQQKPGSSPKPWIYATSNLASGVPARFSGSGSGTSYSLTISRVEAEDAATYYCQQWSSIPPTFGGGTKLEIKR
notes: Mouse IgG1, kappa
Turning to B10, the binding result in experiment [4] was “no binding”.

B11: M-hProtS-6F128A2 monoclonal antibody (antibody, mouse IgG1, V domains shown)
VL: SIVMTQTPKFLLVSAGDRVTITCKASQSVSNDVAWYQQKPGQSPKLLIYYASNRYTGVPDRFTGSGYGTDFTFTISTVQAEDLAVYFCQQDYSSPYTFGGGTKLEIKR
V domain: QVQLQQPGAELVRPGASVKLSCKASGYTFTSYWINWVKQRPEQGLEWIGRIDPYDSETHYNQKFKDKAILTVDKSSSTAYMQLSSLTSEDSAVYYCARWGGSGYAMDYWGQGTSATVSS
notes: as for B3
On to B11, for which the binding result in experiment [1] was “binds”; in experiment [3], “binds”; in experiment [4] it was “no binding”; in experiment [5], “binds”.
